B1: Tripartite motif-containing protein 44, residues 174 to 218; numbered along this chain, Q96DX7 (parent)
chain: VAKRKCPDHGLDLSTYCQEDRQLICVLCPVIGAHQGHQLSTLDEA
B2: RanBP-type and C3HC4-type zinc finger-containing protein 1, residues 369 to 411; numbered along this chain, Q9BYM8 (parent)
chain: YHCKTPDCKGWCFFEDDVNEFTCPVCFHVNCLLCKAIHEQMNC

Variants of: B1
Assay: abundance fitness (aPCA) (normalised: wild type 0, dead -1); higher = more abundant; growth selection in yeast, the domain comes from the species named
Conditions: Homo sapiens

Abundance fitness of substitutions, site by site:
H9: F -1.24, S -1.02, P -1.15, K -0.995, G -0.91
K5: R -0.159, C -0.141, G -0.218, S -0.125
S40: V -0.083
Q18: N -0.01, G -0.111, A -0.021
Q35: N -0.092, Y -0.067, R -0.1, G -0.152
Q38: T 0.039, F -0.079, K 0.03, M 0
D8: P -0.827, S -0.03, T 0.051, Q 0.028, A 0.016
R21: S 0.068, N 0.047, T -0.037, H 0.029
S14: G 0.019, K 0.014, V 0.011
L23: C -0.116, N -0.09, Q 0.058
L39: A -0.02, H 0.011, C -0.06, I -0.024
C17: M -0.779, L -0.982, Q -0.633, T -0.705, H -0.818
I31: Q 0.028, Y -0.077, S 0.097, L -0.02, N 0.059, V 0.032
T41: Q 0.011, C -0.029, D 0.016, V -0.038, P 0.003, A 0.024
L42: V 0.023, M -0.003, Q 0.048, S 0.033, T 0.068
V30: F -0.133, M -0.008, E 0.013, I -0.032, N -0.057, H -0.046
Q22: F -0.281, T 0.06, D -0.014, E 0.072, W -0.552, R -0.001
D12: S -0.113, P -0.033, R -0.214, I -0.016
A45: V -0.022, E -0.096, I 0.168, S -0.243, M -0.029
L11: R 0, Y -0.031, F -0.083
C6: P -1.07, R -0.999, Y -0.92
G32: M -0.663, V -0.674, E -0.355, F -0.871, R -0.492
V26: M -0.011, Q 0.074, A 0.042, S 0.084, W -0.065, T 0.054, D 0.046, G 0.002
R4: P -0.314, F -0.041
T15: A -0.085, V -0.198, D -0.006, G -0.101
L13: H -0.339, E -0.123, F -0.186, R -0.1
H37: L -0.839, K -0.606, D -0.589, S -0.678
L27: S -0.024, E 0.063, Y -0.059, V -0.151, F -0.137, H -0.069
G36: L -0.266, P -0.561, N -0.007
E19: F -0.097, I -0.063, P -0.198, A -0.045, G -0.093
G10: R -0.147, W -0.311, E -0.074, I -0.445, K -0.106, H 0.002
P29: D -0.077, G -0.083, W -0.207, L -0.117, R -0.054, V -0.133
P7: I -0.092, M -0.036, L -0.124, V -0.25, D -0.481
D43: H -0.058, M -0.072, E 0.023, P 0, C -0.042, N -0.026, G -0.013, T -0.042
A2: I 0.041, L -0.031, T 0.12, Y -0.027, N 0.096
C25: R -0.728, F -0.926, K -0.634, V -1.08
Y16: Q -0.029, L -0.054, T 0.029, D -0.276
K3: V -0.076, T -0.013, N -0.042, S -0.056, G -0.052, C -0.379, I 0.032, L -0.09, Y -0.137
A33: V -0.05, I -0.031, N -0.014, K -0.006
H34: L -0.925, V -0.802, C -0.107, S -0.689, F -0.776, G -0.65, Y -0.665, R -0.653
V1: P -0.11, Y -0.226, S -0.027
E44: C -0.055, H 0.102, N -0.014, K -0.056, M -0.058
D20: C -0.045

Variants of: B2
Assay: as above
Conditions: Homo sapiens

Abundance fitness, by site and new letter:
A36: R -0.015, P -0.333, T 0.005, M -0.266, D -0.053, W -0.87, L -0.534, G 0.051, F -0.848, K -0.084, Y -0.83, E 0.058, S 0.01, V -0.28, I -0.331, N -0.111
N42: C -0.005, S 0.006, G 0.161, Q 0.304, M -0.101, P 0.219, A 0.106, E 0.075, L -0.196, H 0.138, W -0.069, F -0.415, Y -0.122, D 0.025, I -0.231, K -0.064, V -0.141, R -0.008, T 0.069
Q40: W -0.542, T 0.068, V -0.32, N 0.036, C -0.139, H -0.031, S 0.023, D 0.043, A -0.094, G 0.129, L -0.452, E 0.107, P 0.005, F -0.54, R -0.022
E39: R -0.111, V -0.155, Q -0.012, M -0.143, T 0.021, W -0.249, S -0.09, P 0.029, K -0.021, N -0.081, H -0.167, C -0.27, A -0.09, G 0.024, D 0.03, L -0.106, F -0.213
C43: V -0.396, N -0.511, M -0.507, E -0.427, A -0.372, I -0.511, K -0.37, P -0.211, H -0.23, G -0.29, S -0.312, Q -0.357, T -0.216, Y -0.424, R -0.323
M41: H 0.043, C -0.004, A 0.178, Q 0.15, P 0.059, V -0.008, R 0.128, I -0.112, E 0.135, G 0.202, Y -0.173, D 0.094, S 0.156, K 0.101, T 0.155, L -0.076, W -0.035, F -0.2, N 0.114
H38: P -0.611, R -0.699, W -1, F -0.59, Q -0.63, Y -0.721, T -0.639, D -0.482, I -0.881, A -0.689, G -0.536, C -0.774, K -0.707, N -0.76, M -0.89, V -0.803, E -0.46, S -0.614, L -1.14
I37: K -0.208, C -0.222, S -0.183, P -0.133, M -0.214, R -0.145, F -0.412, E -0.181, L -0.219, W -0.39, H -0.218, A -0.152, D -0.107, Y -0.464, N -0.269, Q -0.077
